Test results: IntAct's records for PubMed 16902413

These substances were tested against nebu_human NEB (UniProt P20929).

| Substance | effect of a mutation on the interaction |
| --- | --- |
| Titin (Homo sapiens), Q8WZ42 P254G | decreasing interaction |
| Titin (Homo sapiens), Q8WZ42 P258G | decreasing interaction |
| Titin (Homo sapiens), Q8WZ42 P266G | decreasing interaction |
| Titin (Homo sapiens), Q8WZ42 P268G | decreasing interaction |
| Titin (Homo sapiens), Q8WZ42 P269G | decreasing interaction |
